Assay results as given in the DeepSol protein solubility set.

Test: soluble on expression in E. coli; label from the status in PepcDB or PDB records

Soluble on expression in E. coli, not soluble:
MNYELIVVGGGPAGLAAAYEAYNNGIKNILILERDKELGGILNQCIHNGFGLHTFKEELTGPEYADRFIEMVKDTNVEVKLNTMVLEITKDKKVYAINSKEGYMELEAKAIILSMGCRERTRGAINIPGDRPAGVFTAGAAQRYINVEGYMPGKEVVILGSGDIGLIMARRMTLEGAKVKAVVELCPYSNGLNRNIVQCLNDYNIPLYLSHTVTDIIGKERLEKVIIAKVDENRRPIKGTEIEFDADTLLLSVGLIPENELSSNAGIELDRRTNGLRVTESMETSIDGIFACGNVVHVHDLVDFVTEESKRTGASAAKYIKGELKKDKYVNIVNGTNVNYTVPQKLNVDDVEDRLTIFMRVNNIYHNKVLVVRSKEEVIAKFKRAHLAPSEMEKVVLGKAFLDKIKSDITISLEDGE
MALTCTDMSDAVAGSDAEGLTADAIVVGAGLAGLVAACELADRGLRVLILDQENRANVGGQAFWSFGGLFLVNSPEQRRLGIRDSHELALQDWLGTAAFDRPEDYWPEQWAHAYVDFAAGEKRSWLRARGLKIFRWWAGPSVVVTTRRGTATRCPVSTSPGVLGRLWSTYSCVSCVIAPRCALRTATRSTNLEHHHHHH
MGSDKIHHHHHHMKIGIVTFHRALNYGAVLQACAMRRIFSDHGEVEMVDYWPDYHSSHYSLLDTRFLNKNQSLSSRVRLLKSAIKRIILLPVRLKRNKKFLSFIDSNIVKVSNAPIKLANKIPDYFDVVVYGSDQIWRVYDFDNYPRPDMVYMGAGVLDGTRKIAFAASMGDVNVDTLCDDSVIKALKNFEHINVREQALSESLLKHSGLSSCVVLDPTFLVSSDVWKRMAETIPRNRKDNKYALFYSLIPSEESIRIAKNIAEEKGVELVEINGFETIGGLFNKSVAQSAGPLDFLELIMNAEFIVSTSFHGVVFSIIFEKQFCACGMKGHSERVRSLLSKLSIEDRLIDTVEQLESLGEIDYKEVTKLLAREIEHSKELLEYSLFE
EIGYYEWAIENDEMHCNSLYKKIFGFSDAHDPTYKEFTSQIFPKDLSVRNNAVQRAILVGGVYNAEYRVRHPNDELRWVKSFGKAIYDEKGKPVKLIGMILD
MGHHHHHHSHKIRVAHTPDADDAFMFYAMTHGKVDTWLEIEHVIEDIETLNRKAFNAEYEVTAISAHAYALLDDKYRILSAGASVGDGYGPVVVAKSEISLDGKRIAVPGRYTTANLLLKLAVEDFEPVEMPFDRIIQAVLDEEVDAGLLIHEGQITYADYGLKCVLDLWDWWSEQVKLPLPLGLNAIRRDLSVEVQEEFLRAMRESIAFAIENPDEAIEYAMKYSRGLDRERAKRFAMMYVNDYTYNMPESVDAALKKLYEMAEAKGLI
MAGRAAVPEVIWSRPERTGRGPRPAYTRADIAAAAVRIADADGLDAVSMRRVAGELGCGTMSLYNYVPRKEDLYELMMDAVSGEHELWEPSGDWRADMIRVAHQTRALMHRHTWLPRLMSPVYGFSPNALRYLEHCLACLDPFEAPYGTKMELVAMVNGVVTTYVANEIATVERTRSLPWSEEQENAARIAYLGRQVASGAYPRLAASFAEDAGPIDLEGVFERALARVLDGFA
MGSDKIHHHHHHMESENQEYQNEADLLSKQEEWCDEEFQEEDSFDIKEYDITTSPNDFNTKTMFDFIESGAVKIPGFQRNYVWDIKRASKLIESIIIGLPVPQIFLYEEARNRFLVIDGQQRLMSIYYFVKQRFPIYEKRIELRHIFDENGKIPGEVLHNDKYFTKFNLQLPSRLSNQRNKLHSLNYSTLDEYKITFDLRTIRNIIIKQNFPSDDNSSIYEVFNRLNSGGMNLKPQEIRASLYHSDFYTMLYRINALPEWRKIVGVEPDLHMKDIEILLRGFAMLVKGTEYKPSMAKFLNEFSSGCKKLEAQKIQYLEELFHSFLSSCSNLPEKAFYGKITNKFNLSMFESIFFAHCKKSFAQEIFIEDKLDYTQLERLKSDPEFINAIQNRTSSTANVKARLERAVSILAEEV
MTIAVSPQALPALVLNADYRPLSYYPLSLWSWQDAIKAVFLDRVNIIAEYDHAVSSPSFSMRLPSVVSLKTYVQPIRNPAFTRFNVFLRDKFECQYCGTRDELTFDHVIPRAHGGETTWHNVVAACSPCNLRKGSKLPKQAGMFPAQKPFQPTVQDLHNNGRLFPPNYLHESWMDYLYWDTELQPLEHHHHHH
